Laboratory results published in US20150344570A1 (published 2015).

T1: FcγRIIb extracellular domain with C-terminal His tag (human, UniProt P31994 43-217)
T1 construct: extracellular domain; soluble analyte in Biacore; also called FcgRIIb; not shown: His tag at the C terminus
T1 sequence (looked up): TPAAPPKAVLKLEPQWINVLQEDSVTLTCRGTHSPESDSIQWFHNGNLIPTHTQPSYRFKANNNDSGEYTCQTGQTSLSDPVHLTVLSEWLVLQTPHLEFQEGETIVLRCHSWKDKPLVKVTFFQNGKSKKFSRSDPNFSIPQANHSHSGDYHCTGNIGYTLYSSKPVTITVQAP


Key:
[1] = biological target: T2, FcγRIa extracellular domain with C-terminal His tag (human, UniProt P12314 16-292); assay: SPR, binding relative to GpH7-A5/GpH7-B3/GpL16-k0 = 100
T2 construct: extracellular domain; soluble analyte in Biacore; also called FcgRI; not shown: His tag at the C terminus

[2] = biological target: T1, FcγRIIb extracellular domain with …; assay: as above

T2 sequence (P12314 16-292): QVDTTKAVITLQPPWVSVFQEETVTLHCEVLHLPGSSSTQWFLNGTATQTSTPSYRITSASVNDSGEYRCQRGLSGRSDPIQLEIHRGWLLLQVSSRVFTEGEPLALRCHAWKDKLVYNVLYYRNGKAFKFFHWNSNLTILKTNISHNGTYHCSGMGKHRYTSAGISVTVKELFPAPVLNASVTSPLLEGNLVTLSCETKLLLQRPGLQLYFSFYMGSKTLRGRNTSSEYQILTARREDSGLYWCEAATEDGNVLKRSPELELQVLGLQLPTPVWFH

| He/Con_1a [1] | He/Con_2b [2] | Binder |
| --- | --- | --- |
| 103 % of control | 94.7 % of control | GpH7-A5/GpH7-B3 variant A327_03V/GpL16-k0 (antibody, human IgG1, kappa, change in the GpH7-B3 H chain only; also called He Ab) heavy 1: not shown heavy 2: not shown light: DIVMTQSPLSLPVTPGEPASISCQASESLVHSNRNTYLHWYLQKPGQSPQLLIYKVSNRFSGVPDRFSGSGSGTDFTLKISRVEAEDVGVYYCSQNTHVPPTFGQGTKVEIERTVAAPSVFIFPPSDEQLKSGTASVVCLLNNFYPREAKVQWKVDNALQSGNSQESVTEQDSKDSTYSLSSTLTLSKADYEKHKVYACEVTHQGLSSPVTKSFNRGEC |
| 107 % of control | 70.5 % of control | GpH7-A5/GpH7-B3 variant A330_08L/GpL16-k0 (antibody, human IgG1, kappa, change in the GpH7-B3 H chain only; also called He Ab) heavy 1: not shown heavy 2: not shown light: DIVMTQSPLSLPVTPGEPASISCQASESLVHSNRNTYLHWYLQKPGQSPQLLIYKVSNRFSGVPDRFSGSGSGTDFTLKISRVEAEDVGVYYCSQNTHVPPTFGQGTKVEIERTVAAPSVFIFPPSDEQLKSGTASVVCLLNNFYPREAKVQWKVDNALQSGNSQESVTEQDSKDSTYSLSSTLTLSKADYEKHKVYACEVTHQGLSSPVTKSFNRGEC |
| 103 % of control | 59.5 % of control | GpH7-A5/GpH7-B3 variant A327_06M/GpL16-k0 (antibody, human IgG1, kappa, change in the GpH7-B3 H chain only; also called He Ab) heavy 1: not shown heavy 2: not shown light: DIVMTQSPLSLPVTPGEPASISCQASESLVHSNRNTYLHWYLQKPGQSPQLLIYKVSNRFSGVPDRFSGSGSGTDFTLKISRVEAEDVGVYYCSQNTHVPPTFGQGTKVEIERTVAAPSVFIFPPSDEQLKSGTASVVCLLNNFYPREAKVQWKVDNALQSGNSQESVTEQDSKDSTYSLSSTLTLSKADYEKHKVYACEVTHQGLSSPVTKSFNRGEC |
| 106 % of control | 52.4 % of control | GpH7-A5/GpH7-B3 variant A330_03V/GpL16-k0 (antibody, human IgG1, kappa, change in the GpH7-B3 H chain only; also called He Ab) heavy 1: not shown heavy 2: not shown light: DIVMTQSPLSLPVTPGEPASISCQASESLVHSNRNTYLHWYLQKPGQSPQLLIYKVSNRFSGVPDRFSGSGSGTDFTLKISRVEAEDVGVYYCSQNTHVPPTFGQGTKVEIERTVAAPSVFIFPPSDEQLKSGTASVVCLLNNFYPREAKVQWKVDNALQSGNSQESVTEQDSKDSTYSLSSTLTLSKADYEKHKVYACEVTHQGLSSPVTKSFNRGEC |
| 109 % of control | 55.6 % of control | GpH7-A5/GpH7-B3 variant A330_09D/GpL16-k0 (antibody, human IgG1, kappa, change in the GpH7-B3 H chain only; also called He Ab) heavy 1: not shown heavy 2: not shown light: DIVMTQSPLSLPVTPGEPASISCQASESLVHSNRNTYLHWYLQKPGQSPQLLIYKVSNRFSGVPDRFSGSGSGTDFTLKISRVEAEDVGVYYCSQNTHVPPTFGQGTKVEIERTVAAPSVFIFPPSDEQLKSGTASVVCLLNNFYPREAKVQWKVDNALQSGNSQESVTEQDSKDSTYSLSSTLTLSKADYEKHKVYACEVTHQGLSSPVTKSFNRGEC |
| 106 % of control | 63.7 % of control | GpH7-A5/GpH7-B3 variant A330_18N/GpL16-k0 (antibody, human IgG1, kappa, change in the GpH7-B3 H chain only; also called He Ab) heavy 1: not shown heavy 2: not shown light: DIVMTQSPLSLPVTPGEPASISCQASESLVHSNRNTYLHWYLQKPGQSPQLLIYKVSNRFSGVPDRFSGSGSGTDFTLKISRVEAEDVGVYYCSQNTHVPPTFGQGTKVEIERTVAAPSVFIFPPSDEQLKSGTASVVCLLNNFYPREAKVQWKVDNALQSGNSQESVTEQDSKDSTYSLSSTLTLSKADYEKHKVYACEVTHQGLSSPVTKSFNRGEC |
| 103 % of control | 81.4 % of control | GpH7-A5/GpH7-B3 variant E333_01G/GpL16-k0 (antibody, human IgG1, kappa, change in the GpH7-B3 H chain only; also called He Ab) heavy 1: not shown heavy 2: not shown light: DIVMTQSPLSLPVTPGEPASISCQASESLVHSNRNTYLHWYLQKPGQSPQLLIYKVSNRFSGVPDRFSGSGSGTDFTLKISRVEAEDVGVYYCSQNTHVPPTFGQGTKVEIERTVAAPSVFIFPPSDEQLKSGTASVVCLLNNFYPREAKVQWKVDNALQSGNSQESVTEQDSKDSTYSLSSTLTLSKADYEKHKVYACEVTHQGLSSPVTKSFNRGEC |
| 107 % of control | 70.1 % of control | GpH7-A5/GpH7-B3 variant A330_10E/GpL16-k0 (antibody, human IgG1, kappa, change in the GpH7-B3 H chain only; also called He Ab) heavy 1: not shown heavy 2: not shown light: DIVMTQSPLSLPVTPGEPASISCQASESLVHSNRNTYLHWYLQKPGQSPQLLIYKVSNRFSGVPDRFSGSGSGTDFTLKISRVEAEDVGVYYCSQNTHVPPTFGQGTKVEIERTVAAPSVFIFPPSDEQLKSGTASVVCLLNNFYPREAKVQWKVDNALQSGNSQESVTEQDSKDSTYSLSSTLTLSKADYEKHKVYACEVTHQGLSSPVTKSFNRGEC |
| 105 % of control | 95 % of control | GpH7-A5/GpH7-B3 variant A330_15Y/GpL16-k0 (antibody, human IgG1, kappa, change in the GpH7-B3 H chain only; also called He Ab) heavy 1: not shown heavy 2: not shown light: DIVMTQSPLSLPVTPGEPASISCQASESLVHSNRNTYLHWYLQKPGQSPQLLIYKVSNRFSGVPDRFSGSGSGTDFTLKISRVEAEDVGVYYCSQNTHVPPTFGQGTKVEIERTVAAPSVFIFPPSDEQLKSGTASVVCLLNNFYPREAKVQWKVDNALQSGNSQESVTEQDSKDSTYSLSSTLTLSKADYEKHKVYACEVTHQGLSSPVTKSFNRGEC |
| 105 % of control | 67.1 % of control | GpH7-A5/GpH7-B3 variant A330_07I/GpL16-k0 (antibody, human IgG1, kappa, change in the GpH7-B3 H chain only; also called He Ab) heavy 1: not shown heavy 2: not shown light: DIVMTQSPLSLPVTPGEPASISCQASESLVHSNRNTYLHWYLQKPGQSPQLLIYKVSNRFSGVPDRFSGSGSGTDFTLKISRVEAEDVGVYYCSQNTHVPPTFGQGTKVEIERTVAAPSVFIFPPSDEQLKSGTASVVCLLNNFYPREAKVQWKVDNALQSGNSQESVTEQDSKDSTYSLSSTLTLSKADYEKHKVYACEVTHQGLSSPVTKSFNRGEC |
| 105 % of control | 80.5 % of control | GpH7-A5/GpH7-B3 variant A330_06M/GpL16-k0 (antibody, human IgG1, kappa, change in the GpH7-B3 H chain only; also called He Ab) heavy 1: not shown heavy 2: not shown light: DIVMTQSPLSLPVTPGEPASISCQASESLVHSNRNTYLHWYLQKPGQSPQLLIYKVSNRFSGVPDRFSGSGSGTDFTLKISRVEAEDVGVYYCSQNTHVPPTFGQGTKVEIERTVAAPSVFIFPPSDEQLKSGTASVVCLLNNFYPREAKVQWKVDNALQSGNSQESVTEQDSKDSTYSLSSTLTLSKADYEKHKVYACEVTHQGLSSPVTKSFNRGEC |
| 105 % of control | 93.2 % of control | GpH7-A5/GpH7-B3 variant E333_03V/GpL16-k0 (antibody, human IgG1, kappa, change in the GpH7-B3 H chain only; also called He Ab) heavy 1: not shown heavy 2: not shown light: DIVMTQSPLSLPVTPGEPASISCQASESLVHSNRNTYLHWYLQKPGQSPQLLIYKVSNRFSGVPDRFSGSGSGTDFTLKISRVEAEDVGVYYCSQNTHVPPTFGQGTKVEIERTVAAPSVFIFPPSDEQLKSGTASVVCLLNNFYPREAKVQWKVDNALQSGNSQESVTEQDSKDSTYSLSSTLTLSKADYEKHKVYACEVTHQGLSSPVTKSFNRGEC |
| 105 % of control | 90.8 % of control | GpH7-A5/GpH7-B3 variant A330_19Q/GpL16-k0 (antibody, human IgG1, kappa, change in the GpH7-B3 H chain only; also called He Ab) heavy 1: not shown heavy 2: not shown light: DIVMTQSPLSLPVTPGEPASISCQASESLVHSNRNTYLHWYLQKPGQSPQLLIYKVSNRFSGVPDRFSGSGSGTDFTLKISRVEAEDVGVYYCSQNTHVPPTFGQGTKVEIERTVAAPSVFIFPPSDEQLKSGTASVVCLLNNFYPREAKVQWKVDNALQSGNSQESVTEQDSKDSTYSLSSTLTLSKADYEKHKVYACEVTHQGLSSPVTKSFNRGEC |
| 103 % of control | 83.8 % of control | GpH7-A5/GpH7-B3 variant E333_02A/GpL16-k0 (antibody, human IgG1, kappa, change in the GpH7-B3 H chain only; also called He Ab) heavy 1: not shown heavy 2: not shown light: DIVMTQSPLSLPVTPGEPASISCQASESLVHSNRNTYLHWYLQKPGQSPQLLIYKVSNRFSGVPDRFSGSGSGTDFTLKISRVEAEDVGVYYCSQNTHVPPTFGQGTKVEIERTVAAPSVFIFPPSDEQLKSGTASVVCLLNNFYPREAKVQWKVDNALQSGNSQESVTEQDSKDSTYSLSSTLTLSKADYEKHKVYACEVTHQGLSSPVTKSFNRGEC |
| 106 % of control | 92.8 % of control | GpH7-A5/GpH7-B3 variant A330_04F/GpL16-k0 (antibody, human IgG1, kappa, change in the GpH7-B3 H chain only; also called He Ab) heavy 1: not shown heavy 2: not shown light: DIVMTQSPLSLPVTPGEPASISCQASESLVHSNRNTYLHWYLQKPGQSPQLLIYKVSNRFSGVPDRFSGSGSGTDFTLKISRVEAEDVGVYYCSQNTHVPPTFGQGTKVEIERTVAAPSVFIFPPSDEQLKSGTASVVCLLNNFYPREAKVQWKVDNALQSGNSQESVTEQDSKDSTYSLSSTLTLSKADYEKHKVYACEVTHQGLSSPVTKSFNRGEC |
| 103 % of control | 95 % of control | GpH7-A5/GpH7-B3 variant A330_11K/GpL16-k0 (antibody, human IgG1, kappa, change in the GpH7-B3 H chain only; also called He Ab) heavy 1: not shown heavy 2: not shown light: DIVMTQSPLSLPVTPGEPASISCQASESLVHSNRNTYLHWYLQKPGQSPQLLIYKVSNRFSGVPDRFSGSGSGTDFTLKISRVEAEDVGVYYCSQNTHVPPTFGQGTKVEIERTVAAPSVFIFPPSDEQLKSGTASVVCLLNNFYPREAKVQWKVDNALQSGNSQESVTEQDSKDSTYSLSSTLTLSKADYEKHKVYACEVTHQGLSSPVTKSFNRGEC |
| 108 % of control | 76.1 % of control | GpH7-A5/GpH7-B3 variant A330_20W/GpL16-k0 (antibody, human IgG1, kappa, change in the GpH7-B3 H chain only; also called He Ab) heavy 1: not shown heavy 2: not shown light: DIVMTQSPLSLPVTPGEPASISCQASESLVHSNRNTYLHWYLQKPGQSPQLLIYKVSNRFSGVPDRFSGSGSGTDFTLKISRVEAEDVGVYYCSQNTHVPPTFGQGTKVEIERTVAAPSVFIFPPSDEQLKSGTASVVCLLNNFYPREAKVQWKVDNALQSGNSQESVTEQDSKDSTYSLSSTLTLSKADYEKHKVYACEVTHQGLSSPVTKSFNRGEC |
| 102 % of control | 79.5 % of control | GpH7-A5/GpH7-B3 variant A327_13S/GpL16-k0 (antibody, human IgG1, kappa, change in the GpH7-B3 H chain only; also called He Ab) heavy 1: not shown heavy 2: not shown light: DIVMTQSPLSLPVTPGEPASISCQASESLVHSNRNTYLHWYLQKPGQSPQLLIYKVSNRFSGVPDRFSGSGSGTDFTLKISRVEAEDVGVYYCSQNTHVPPTFGQGTKVEIERTVAAPSVFIFPPSDEQLKSGTASVVCLLNNFYPREAKVQWKVDNALQSGNSQESVTEQDSKDSTYSLSSTLTLSKADYEKHKVYACEVTHQGLSSPVTKSFNRGEC |
| 105 % of control | 77.9 % of control | GpH7-A5/GpH7-B3 variant A330_14T/GpL16-k0 (antibody, human IgG1, kappa, change in the GpH7-B3 H chain only; also called He Ab) heavy 1: not shown heavy 2: not shown light: DIVMTQSPLSLPVTPGEPASISCQASESLVHSNRNTYLHWYLQKPGQSPQLLIYKVSNRFSGVPDRFSGSGSGTDFTLKISRVEAEDVGVYYCSQNTHVPPTFGQGTKVEIERTVAAPSVFIFPPSDEQLKSGTASVVCLLNNFYPREAKVQWKVDNALQSGNSQESVTEQDSKDSTYSLSSTLTLSKADYEKHKVYACEVTHQGLSSPVTKSFNRGEC |
| 106 % of control | 87.6 % of control | GpH7-A5/GpH7-B3 variant A330_16H/GpL16-k0 (antibody, human IgG1, kappa, change in the GpH7-B3 H chain only; also called He Ab) heavy 1: not shown heavy 2: not shown light: DIVMTQSPLSLPVTPGEPASISCQASESLVHSNRNTYLHWYLQKPGQSPQLLIYKVSNRFSGVPDRFSGSGSGTDFTLKISRVEAEDVGVYYCSQNTHVPPTFGQGTKVEIERTVAAPSVFIFPPSDEQLKSGTASVVCLLNNFYPREAKVQWKVDNALQSGNSQESVTEQDSKDSTYSLSSTLTLSKADYEKHKVYACEVTHQGLSSPVTKSFNRGEC |
